According to patent US20120082679A1 (Merck Sharp & Dohme, published 2012):
Where a chain is given by its changes, count along the chain named. Where two headings read alike, the source gives them in different places. Each block holds one binder with its values, some of them ahead of it.

What was measured:
[1] = biological target: T1, V5-, His-tagged secreted alkaline phosphatase protein (SEAP) (UniProt P05187 23-511); experiment: ELISA, immobilized V5-, His-tagged SEAP, Fab culture supernatant, HRP anti-Fab detection
T1 construct: Tag control antigen, expressed in the same cells as the PCSK9 antigen and similarly purified; not shown: V5 and His tags
Experimental: Cultures of individual transformants were IPTG-induced and grown overnight for Fab expression. Culture supernatants (candidate Fabs) were incubated with purified V5-, His-tagged PCSK9 protein immobilized in wells of 96-well Nunc Maxisorp plates, washed with 0.1% Tween™ 20 in PBS using a plate washer, incubated with HRP-coupled anti-Fab antibody, and washed again with PBS/Tween™ 20. Bound HRP was detected by addition of […] substrated, and A₄₅₀ values of wells were read with a plate reader.
EsB antigen was bound to three wells of the plate and subsequently incubated with anti-EsB Fab. To control for Fabs reacting with the V5 or His tags of the recombinant PCSK9 antigen, parallel ELISAs were performed using V5-, His-tagged secreted alkaline phosphatase protein (SEAP) expressed in the same cells as the original PCSK9 antigen and similarly purified. Putative PCSK9-reactive Fabs were identified as yielding>3× background values when incubated with PCSK9 antigen but negative when incubated with SEAP. Clones scoring as PCSK9-reactive in the first round of screening were consolidated onto a single plate, re-grown in triplicate, re-induced with IPTG, and re-assayed in parallel ELISAs vs. PCSK9 and SEAP. Positive and negative controls were included as described above. Clones scoring positive in at least 2 of 3 replicates were carried forward into subsequent characterizations. In cases of known or suspected mixed preliminary clones, cultures were re-purified by streaking for single colonies on 2×YT plates with chloramphenicol, and liquid cultures from three or more separate colonies were assayed again by ELISAs in triplicate as described above.

[2] = biological target: T2, recombinant human PCSK9, V5-, His-tagged (human, UniProt Q8NBP7 31-692, limits assumed); experiment: cell-based or functional assay
[3] = biological target: T2, recombinant human PCSK9, V5-, His-tagged; experiment: cell-based or functional assay; remark: listed apart in the source
[4] = biological target: T2, recombinant human PCSK9, V5-, His-tagged; experiment: cell-based or functional assay; remark: listed apart in the source
[5] = biological target: T2, recombinant human PCSK9, V5-, His-tagged; experiment: SPR (Biacore 2000), Direct (PCSK9 immobilized, Fab in mobile phase), mean N = 2
[6] = biological target: T2, recombinant human PCSK9, V5-, His-tagged; experiment: SPR (Biacore 2000), Direct & Ab Capture, mean N = 3
Experimental: SPR measurements were performed using a Biacore™ (Pharmacia Biosensor AB, Uppsala, Sweden) 2000 system. Sensor chip CM5 and Amine coupling kit for immobilization were from Biacore™.
Anti-Fab IgG (Human specific) was covalently coupled to surfaces 1 and 2 of a Sensor Chip CM5 via primary amine groups, using the immobilization wizard with the “Aim for immobilization” option. A target immobilization of 5000 RU was specified. The wizard uses a 7 minute activation with a 1:1 mixture of 100 mM NHS and 400 mM EDC; injects the ligand in several pulses to achieve the desired level, then deactivates the remaining surface with a 7 minute pulse of ethanolamine.
Anti-PCSK9 Fabs were captured on capture surface 2 and surface 1 was used as a reference for kinetic studies of Fab:PCSK9 interactions. Fab was captured by flowing a 500 ng/ml solution at 5 μl/min for 1-1.5 minutes to reach a target RL for an Rₘₐₓ of 100-150 RU for the reaction. 5-10 concentrations of hPCSK9v5H is or mPCSK9v5H is antigens were flowed across the surface at 30 μl/minute for 3-4 minutes. 15-60 minutes dissociation time was allowed before regeneration of the Anti-Fab surface with a 30 second pulse of 10 mM glycine pH 2.0.

[7] = biological target: T2, recombinant human PCSK9, V5-, His-tagged; experiment: cell-based or functional assay; remark: listed apart in the source
[8] = biological target: T2, recombinant human PCSK9, V5-, His-tagged; experiment: cell-based or functional assay; remark: listed apart in the source
[9] = biological target: T2, recombinant human PCSK9, V5-, His-tagged; experiment: cell-based or functional assay; remark: listed apart in the source

T1 sequence (P05187 23-511): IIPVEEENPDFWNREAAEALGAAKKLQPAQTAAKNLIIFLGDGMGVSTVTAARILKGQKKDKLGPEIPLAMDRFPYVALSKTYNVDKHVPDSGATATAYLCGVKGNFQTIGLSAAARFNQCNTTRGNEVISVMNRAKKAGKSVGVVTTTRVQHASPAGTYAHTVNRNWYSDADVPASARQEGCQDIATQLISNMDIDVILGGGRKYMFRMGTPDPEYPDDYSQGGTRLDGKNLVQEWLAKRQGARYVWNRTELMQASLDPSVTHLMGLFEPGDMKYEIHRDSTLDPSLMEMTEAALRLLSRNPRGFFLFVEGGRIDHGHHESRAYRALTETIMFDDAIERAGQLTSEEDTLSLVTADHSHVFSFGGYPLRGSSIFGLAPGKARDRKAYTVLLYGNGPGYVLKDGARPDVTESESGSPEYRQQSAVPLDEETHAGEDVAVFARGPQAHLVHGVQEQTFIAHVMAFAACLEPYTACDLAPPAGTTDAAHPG
T2 sequence (Q8NBP7 31-692 limits assumed): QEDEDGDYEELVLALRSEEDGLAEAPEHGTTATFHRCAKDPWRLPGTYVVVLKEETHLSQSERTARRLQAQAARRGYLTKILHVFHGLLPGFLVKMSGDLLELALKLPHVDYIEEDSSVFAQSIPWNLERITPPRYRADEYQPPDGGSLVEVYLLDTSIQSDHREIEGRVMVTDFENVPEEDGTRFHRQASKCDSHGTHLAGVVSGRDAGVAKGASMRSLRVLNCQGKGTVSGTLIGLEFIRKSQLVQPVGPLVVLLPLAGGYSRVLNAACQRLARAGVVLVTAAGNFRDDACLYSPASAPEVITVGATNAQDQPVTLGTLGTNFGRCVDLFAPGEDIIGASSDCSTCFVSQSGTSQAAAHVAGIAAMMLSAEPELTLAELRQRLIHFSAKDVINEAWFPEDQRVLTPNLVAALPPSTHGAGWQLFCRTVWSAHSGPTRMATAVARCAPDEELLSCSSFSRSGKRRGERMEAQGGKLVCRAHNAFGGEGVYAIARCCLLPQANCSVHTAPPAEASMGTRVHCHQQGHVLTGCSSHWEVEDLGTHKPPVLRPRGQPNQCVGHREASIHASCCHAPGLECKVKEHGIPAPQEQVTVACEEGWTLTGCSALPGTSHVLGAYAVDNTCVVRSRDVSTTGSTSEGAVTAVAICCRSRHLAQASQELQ

B2: 3CX3D02 (Fab, V domains shown)
VH: QVQLVQSGAEVKKPGESLKISCKGSGYSFTNSWIGWVRQMPGKGLEWMGIIYPSDSYTIYSPSFQGQVTISADKSISTAYLQWSSLKASDTAMYYCARGGGYYYALMDVWAQGTLVTVSS
VL: DIQMTQSPSSLSASVGDRVTITCRASQTISTWLNWYQQKPGKAPKLLIYAASSLQSGVPSRFSGSGSGTDFTLTISSLQPEDFATYYCLQDSSLPLTFGQGTKVEIKR
notes: also called 3CX3D02 Fab
- IC50; Fab titrated against fixed PCSK9 (25 µg/ml), recovery of cellular diI-LDL uptake (Exopolar assay) [4]: 289 nM
- binding result [1]: no binding
- Kd [5]: 7.01 nM
- koff [5]: 0.000876 s⁻¹
- kon [5]: 166000 M⁻¹ s⁻¹
- inhibition of PCSK9-dependent inhibition of cellular LDL uptake (Exopolar assay) [3]: 23%

B3: 1CX1G08 (Fab, V domains shown)
VH: QVQLVESGGGLVQPGGSLRLSCAASGFTFSDYWVSWVRQAPGKGLEWVSFISYDGSSTYYADSVKGRFTISRDNSKNTLYLQMNSLRAEDTAVYYCARTYFEGVDVWGQGTLVTVSS
VL: DIELTQPPSVSVAPGQTARISCSGDNIGTYYVHWYQQKPGQAPVLVIYDDSNRPSGIPERFSGSNSGNTATLTISGTQAEDEADYYCGTWDNTSFNLVFGGGTKLTVLG
notes: also called 1CX1G08 Fab
- Kd [6]: 0.55 nM
- koff [6]: 0.000176 s⁻¹
- kon [6]: 335000 M⁻¹ s⁻¹
- binding result [1]: no binding
- IC50; Fab titrated against fixed PCSK9 (25 µg/ml), recovery of cellular diI-LDL uptake (Exopolar assay) [7]: 267 nM
- inhibition of PCSK9-dependent inhibition of cellular LDL uptake (Exopolar assay) [3]: 53%

Further lines, results first:

- binding result [1]: no binding
- IC50; Fab titrated against fixed PCSK9 (25 µg/ml), recovery of cellular diI-LDL uptake (Exopolar assay) [2]: 107 nM
- inhibition of PCSK9-dependent inhibition of cellular LDL uptake (Exopolar assay) [3]: 23%
B1: 3CX2A06 (Fab, V domains shown)
VH: QVQLVQSGAEVKKPGESLKISCKGSGYSFSNFWIAWVRQMPGKGLEWMGIIDPSDSWTRYSPSFQGQVTISADKSISTAYLQWSSLKASDTAMYYCARGDGQDFDNWGQGTLVTVSS
VL: B2 VL with T28N, S30N, T31S, W32Y, T85V, D91N, S92Y, S93D, L96N
notes: No SPR values are printed for this Fab; also called 3CX2A06 Fab

- binding result [1]: no binding
- Kd [5]: 23.1 nM
- koff [5]: 0.000642 s⁻¹
- kon [5]: 28000 M⁻¹ s⁻¹
- IC50; Fab titrated against fixed PCSK9 (25 µg/ml), recovery of cellular diI-LDL uptake (Exopolar assay) [8]: 1250 nM
- inhibition of PCSK9-dependent inhibition of cellular LDL uptake (Exopolar assay) [3]: 25%
B4: 3BX5C01 (Fab, V domains shown)
VH: QVQLVQSGAEVKKPGESLKISCKGSGYSFTSYGISWVRQMPGKGLEWMGMIDPSDSFTTYSPSFQGQVTISADKSISTAYLQWSSLKASDTAMYYCARGYYFTYALQPMDHWGQGTLVTVSS
VL: DIELTQPPSVSVAPGQTARISCSGDNLRDYIVHWYQQKPGQAPVLVIYDDSNRPSGIPERFSGSNSGNTATLTISGTQAEDEADYYCGFDNGGDIDVFGGGTKLTVLG
notes: also called 3BX5C01 Fab

- Kd [6]: 2.97 nM
- koff [6]: 0.000685 s⁻¹
- kon [6]: 233000 M⁻¹ s⁻¹
- binding result [1]: no binding
- IC50; Fab titrated against fixed PCSK9 (25 µg/ml), recovery of cellular diI-LDL uptake (Exopolar assay) [9]: 127 nM
- inhibition of PCSK9-dependent inhibition of cellular LDL uptake (Exopolar assay) [3]: 61%
B5: 3CX4B08 (Fab, V domains shown)
VH: QVQLVESGGGLVQPGGSLRLSCAASGFTFSNYTMNWVRQAPGKGLEWVSFISSSSSETYYADSVKGRFTISRDNSKNTLYLQMNSLRAEDTAVYYCARGYGDMVDLWGQGTLVTVSS
VL: DIELTQPPSVSVAPGQTARISCSGDSIPTYYVAWYQQKPGQAPVLVIYSDTDRPSGIPERFSGSNSGNTATLTISGTQAEDEADYYCQSFDNHGYHVFGGGTKLTVLG
notes: also called 3CX4B08 Fab
